In patent US20080280313:

T1: CKI phosphopeptide substrate KRRRALS(p)VASLPGL (New England Biolabs)
T1 chain: KRRRALSVASLPGL

T2: β-casein (Sigma), P02666
T2 chain: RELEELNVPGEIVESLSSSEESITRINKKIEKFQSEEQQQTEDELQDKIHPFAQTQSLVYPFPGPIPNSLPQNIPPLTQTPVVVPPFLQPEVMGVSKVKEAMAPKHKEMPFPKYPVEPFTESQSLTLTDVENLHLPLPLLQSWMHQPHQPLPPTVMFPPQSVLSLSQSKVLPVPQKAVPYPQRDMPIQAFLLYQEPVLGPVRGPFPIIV

T3: CKI substrate DDDEESITRR (Promega)
T3 chain: DDDEESITRR

T4: CKII substrate RRADDSDDDDD (Calbiochem)
T4 chain: RRADDSDDDDD

T5: CKI substrate peptide RRKDLHDDEEDEAMSITA (Calbiochem)
T5 chain: RRKDLHDDEEDEAMSITA

T6: kemptide LRRASLG (Promega)
T6 chain: LRRASLG

T7: Syntide-2 substrate PLARTLSVAGLPGKK (Calbiochem)
T7 chain: PLARTLSVAGLPGKK

T8: CaM kinase II substrate (281-291) MHKNETVECLK (Calbiochem)
T8 chain: MHKNETVECLK

T9: partially dephosphorylated α-casein (Sigma), P02662
T9 chain: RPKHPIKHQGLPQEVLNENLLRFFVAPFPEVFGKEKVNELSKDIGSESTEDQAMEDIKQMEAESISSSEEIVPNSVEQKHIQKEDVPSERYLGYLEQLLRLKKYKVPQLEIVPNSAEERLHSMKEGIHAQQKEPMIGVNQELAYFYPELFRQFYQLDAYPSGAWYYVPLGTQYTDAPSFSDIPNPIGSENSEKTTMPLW

T10: CKII substrate RRREEETEEE (New England Biolabs)
T10 chain: RRREEETEEE

B1: native EtCKIα, partially purified from Eimeria tenella unsporulated oocysts (protein)
chain: MDVRVGGKYRLGRKIGSGSFGDIYLGTNISTGDEVAIKLESVRSRHPQLIYESKLYKILTGGIGIPTLYWYGIEGDYNVMIIELLGPSLEDLFSICNRKLSLKTVLMLADQMLNRIEFVHSRHFIHRDIKPDNFLIGRGKKMSIVFAIDFGLAKKYRDPRTQSHIPYREGKNLTGTARYASVNTHLGIEQSRRDDLEALGYVLMYFNRGSLPWQGLKATTKKDKYDKIMEKKMSTPIEVLCKQFPFEFITYLNYCRSLRFEDRPDYSYLRRLFKDLFFREGYQYDFIFDWTFLHAERERERQRRSMVNQGAESGNQWRRDASGRDPLGRLPQLEP
B2: FLAGTgCKIβ, N-terminal FLAG epitope tagged Toxoplasma gondii casein kinase I beta (protein)
chain: AHHQDTRNHTGVGPSSSIPLKDLKIAGVWKIGRKIGSGSFGDIYKGLNSQTGQEVALKVESTKAKHPQLLYEYKLLKHLQGGTGIAQVFCCETAGDHNIMAMELLGPSLEDVFNLCNRTFSLKTILLLADQFLQRVEYIHSKNFIHRDIKPDNFLLGGAGNQNTIYVIDFGLAKKFRDPKTHQHIPYRENKNLTGTARYASISAHLGSEQSRRDDLEAVGYVLMYFCRGGTLPWQGIKANTKQEKYHKIMEKKMSTPVEVLCKGYPSEFATYLHYCRSLRFEDRPDYAYLKRLFRDLYIKEGYDDSDREFDWTVKLSSRSLGPPSSRAQHVLLSQDTRTRGKRETDRPVAARSGDRERGIHFSNGNVGNPSMATNPGGLSVMVHERTSLVDQGDRGSRETSTRKEDAKDGRWPGGRFSCLPLLCRRSPTKA

Legend:
[1] = target: T1, CKI phosphopeptide substrate …
[2] = target: T2, β-casein (Sigma), P02666
[3] = target: T3, CKI substrate DDDEESITRR (Promega)
[4] = target: T4, CKII substrate RRADDSDDDDD (Calbiochem)
[5] = target: T5, CKI substrate peptide …
[6] = target: T6, kemptide LRRASLG (Promega)
[7] = target: T7, Syntide-2 substrate PLARTLSVAGLPGKK …
[8] = target: T8, CaM kinase II substrate (281-291) …
[9] = target: T9, partially dephosphorylated α-casein …
[10] = target: T10, CKII substrate RRREEETEEE (New England …)

Row | Protein | Vmax relative to the α-casein substrate [1] | Km(app) [2] [µM] | Vmax(app) (nmole min^-1 mg^-1) [2] | kinase activity with peptide substrate [3] | kinase activity with peptide substrate [4] | Km(app) [5] [µM] | Vmax(app) (nmole min^-1 mg^-1) [5] | kinase activity with peptide substrate [6] | kinase activity with peptide substrate [7] | kinase activity with peptide substrate [8] | Km(app) [9] [µM] | Vmax(app) (nmole min^-1 mg^-1) [9] | Km(app) [1] [µM] | Vmax(app) (nmole min^-1 mg^-1) [1] | kinase activity with peptide substrate [10]
1 | B1 | the phosphopeptide yielded a much higher Vmax (2.5× greater activity) than the α-casein substrate | – | – | – | – | – | – | – | – | – | – | – | – | – | –
2 | B2 | – | 12 | 16 | failed to show concentration dependent kinase activity | failed to show concentration dependent kinase activity | 15 | 8 | failed to show concentration dependent kinase activity | failed to show concentration dependent kinase activity | failed to show concentration dependent kinase activity | 5 | 12 | 79 | 37 | failed to show concentration dependent kinase activity
